# Results taken from PMC9482650, “Quantitative fragmentomics allow affinity mapping of interactomes” (Nature Communications, 2022).
# T1: MPDZ_11, O75970
# T1 sequence (O75970 1720-1817, limits assumed, looked up): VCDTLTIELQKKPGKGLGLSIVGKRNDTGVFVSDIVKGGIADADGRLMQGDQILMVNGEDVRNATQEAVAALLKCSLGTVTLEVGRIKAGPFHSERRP
# T2: PDZD7_2, Q9H5P4
# T2 sequence (Q9H5P4 205-303, limits assumed, looked up): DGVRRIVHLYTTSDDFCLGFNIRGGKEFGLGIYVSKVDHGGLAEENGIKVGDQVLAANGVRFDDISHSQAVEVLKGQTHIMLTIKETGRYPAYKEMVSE
# T3: SHANK2, Q9UPX8
# T3 sequence (Q9UPX8 621-730, limits assumed, looked up): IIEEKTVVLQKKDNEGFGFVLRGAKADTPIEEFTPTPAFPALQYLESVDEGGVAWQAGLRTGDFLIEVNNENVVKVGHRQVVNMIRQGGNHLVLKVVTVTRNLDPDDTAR
# T4: SNTB2, Q13425
# T4 sequence (Q13425 110-208, limits assumed, looked up): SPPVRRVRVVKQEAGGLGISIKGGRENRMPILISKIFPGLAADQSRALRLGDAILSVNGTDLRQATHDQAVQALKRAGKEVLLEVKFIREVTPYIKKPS
# T5: PDZD4, Q76G19
# T5 sequence (Q76G19 125-224, limits assumed, looked up): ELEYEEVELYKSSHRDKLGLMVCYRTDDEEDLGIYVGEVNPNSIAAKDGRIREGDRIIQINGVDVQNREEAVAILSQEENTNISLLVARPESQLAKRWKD
# T6: USH1C_1, Q9Y6N9
# T6 sequence (Q9Y6N9 82-179, limits assumed, looked up): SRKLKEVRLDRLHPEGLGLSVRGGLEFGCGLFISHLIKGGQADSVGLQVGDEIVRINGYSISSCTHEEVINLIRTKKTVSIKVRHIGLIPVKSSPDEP
# T7: SHROOM3, Q8TF72
# T7 sequence (Q8TF72 20-120, limits assumed, looked up): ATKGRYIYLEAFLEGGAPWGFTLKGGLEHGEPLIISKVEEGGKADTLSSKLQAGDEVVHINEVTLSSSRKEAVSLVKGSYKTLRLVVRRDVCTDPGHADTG
# T8: MAGI2_1, Q86UL8
# T8 sequence (Q86UL8 12-111, limits assumed, looked up): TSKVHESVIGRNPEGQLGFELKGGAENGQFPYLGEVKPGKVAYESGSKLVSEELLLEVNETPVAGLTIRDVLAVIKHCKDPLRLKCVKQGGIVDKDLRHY
# T9: GIPC1, O14908
# T9 sequence (O14908 128-223, limits assumed, looked up): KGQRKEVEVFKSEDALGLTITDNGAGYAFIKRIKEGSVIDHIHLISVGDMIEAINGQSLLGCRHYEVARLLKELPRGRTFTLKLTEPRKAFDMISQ
# T10: SHROOM4, Q9ULL8
# T10 sequence (Q9ULL8 5-102, limits assumed, looked up): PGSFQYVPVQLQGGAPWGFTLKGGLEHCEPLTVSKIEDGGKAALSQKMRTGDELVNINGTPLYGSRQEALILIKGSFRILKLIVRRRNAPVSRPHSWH
# T11: CNKSR1, Q969H4
# T11 sequence (Q969H4 191-295, limits assumed, looked up): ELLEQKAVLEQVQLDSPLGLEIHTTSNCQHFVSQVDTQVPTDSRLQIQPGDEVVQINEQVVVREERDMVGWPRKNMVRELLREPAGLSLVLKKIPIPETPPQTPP
# T12: PDZD2_6, O15018
# T12 sequence (O15018 2745-2839, limits assumed, looked up): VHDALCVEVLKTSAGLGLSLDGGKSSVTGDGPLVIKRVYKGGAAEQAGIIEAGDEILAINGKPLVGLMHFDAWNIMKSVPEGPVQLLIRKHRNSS
# Experiments:
# Assay in all cases: holdup assay
# Design in all cases: key: below the threshold = too weak to quantify, mostly under pKd 3.1 to 4
# Conditions in all cases: plain residues with an end cap or a label only (N-terminal biotin on a linker: ttds)
# MPDZ_11, O75970 = biological target: T1, MPDZ_11, O75970
# CARD14, Q9BXL6 = biological target: CARD14, Q9BXL6
# Sequence of CARD14, Q9BXL6 (Q9BXL6 558-663): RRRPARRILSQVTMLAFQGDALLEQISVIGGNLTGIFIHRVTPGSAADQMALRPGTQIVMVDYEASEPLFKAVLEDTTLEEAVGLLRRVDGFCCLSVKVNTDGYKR
# MAGI1_6, Q96QZ7 = biological target: MAGI1_6, Q96QZ7
# Sequence of MAGI1_6, Q96QZ7 (Q96QZ7 1146-1238): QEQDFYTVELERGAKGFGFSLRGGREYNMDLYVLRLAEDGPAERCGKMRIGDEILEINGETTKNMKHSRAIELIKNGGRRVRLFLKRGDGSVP
# PDZD7_2, Q9H5P4 = biological target: T2, PDZD7_2, Q9H5P4
# SHANK2, Q9UPX8 = biological target: T3, SHANK2, Q9UPX8
# GIPC3, Q8TF64 = biological target: GIPC3, Q8TF64
# Sequence of GIPC3, Q8TF64 (Q8TF64 107-202): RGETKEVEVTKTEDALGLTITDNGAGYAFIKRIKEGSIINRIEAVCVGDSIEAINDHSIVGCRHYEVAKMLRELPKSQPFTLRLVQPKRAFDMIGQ
# SNTB2, Q13425 = biological target: T4, SNTB2, Q13425
# MAST3, O60307 = biological target: MAST3, O60307
# Sequence of MAST3, O60307 (O60307 945-1048): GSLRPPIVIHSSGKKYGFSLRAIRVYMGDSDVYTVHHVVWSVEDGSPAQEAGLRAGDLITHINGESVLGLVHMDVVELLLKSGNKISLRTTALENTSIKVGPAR
# GRIP2_2, Q9C0E4 = biological target: GRIP2_2, Q9C0E4
# Sequence of GRIP2_2, Q9C0E4 (Q9C0E4 137-245): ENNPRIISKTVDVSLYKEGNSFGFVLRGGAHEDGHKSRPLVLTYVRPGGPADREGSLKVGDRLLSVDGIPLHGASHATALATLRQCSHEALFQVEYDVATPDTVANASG
# PDZD4, Q76G19 = biological target: T5, PDZD4, Q76G19
# USH1C_1, Q9Y6N9 = biological target: T6, USH1C_1, Q9Y6N9
# MAGI3_3, Q5TCQ9 = biological target: MAGI3_3, Q5TCQ9
# Sequence of MAGI3_3, Q5TCQ9 (Q5TCQ9 572-655): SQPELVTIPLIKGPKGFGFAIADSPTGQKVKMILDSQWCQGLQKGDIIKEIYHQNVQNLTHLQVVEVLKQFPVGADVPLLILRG
# LIMK1, P53667 = biological target: LIMK1, P53667
# Sequence of LIMK1, P53667 (P53667 155-268): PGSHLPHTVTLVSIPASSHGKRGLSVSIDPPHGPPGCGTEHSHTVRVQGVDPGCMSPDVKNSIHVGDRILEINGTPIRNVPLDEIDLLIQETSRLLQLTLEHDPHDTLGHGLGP
# SHROOM3, Q8TF72 = biological target: T7, SHROOM3, Q8TF72
# DLG5_2, Q8TDM6 = biological target: DLG5_2, Q8TDM6
# Sequence of DLG5_2, Q8TDM6 (Q8TDM6 714-800): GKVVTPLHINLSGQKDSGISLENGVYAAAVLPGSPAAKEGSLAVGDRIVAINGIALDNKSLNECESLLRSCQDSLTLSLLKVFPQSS
# MAGI2_1, Q86UL8 = biological target: T8, MAGI2_1, Q86UL8
# MAGI1_5, Q96QZ7 = biological target: MAGI1_5, Q96QZ7
# Sequence of MAGI1_5, Q96QZ7 (Q96QZ7 986-1098): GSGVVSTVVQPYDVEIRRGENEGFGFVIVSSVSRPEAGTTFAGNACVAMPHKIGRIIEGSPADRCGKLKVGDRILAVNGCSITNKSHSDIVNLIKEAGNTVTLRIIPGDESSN
# MAGI3_5, Q5TCQ9 = biological target: MAGI3_5, Q5TCQ9
# Sequence of MAGI3_5, Q5TCQ9 (Q5TCQ9 847-941): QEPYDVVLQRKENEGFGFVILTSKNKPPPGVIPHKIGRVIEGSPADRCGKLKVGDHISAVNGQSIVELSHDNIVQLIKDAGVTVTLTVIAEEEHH
# GIPC1, O14908 = biological target: T9, GIPC1, O14908
# SHROOM4, Q9ULL8 = biological target: T10, SHROOM4, Q9ULL8
# CNKSR1, Q969H4 = biological target: T11, CNKSR1, Q969H4
# LMO7, Q8WWI1 = biological target: LMO7, Q8WWI1
# Sequence of LMO7, Q8WWI1 (Q8WWI1 1037-1138): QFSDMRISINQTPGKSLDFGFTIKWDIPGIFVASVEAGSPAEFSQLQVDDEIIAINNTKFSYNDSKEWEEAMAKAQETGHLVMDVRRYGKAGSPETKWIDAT
# PARD3B_2, Q8TEW8 = biological target: PARD3B_2, Q8TEW8
# Sequence of PARD3B_2, Q8TEW8 (Q8TEW8 376-471): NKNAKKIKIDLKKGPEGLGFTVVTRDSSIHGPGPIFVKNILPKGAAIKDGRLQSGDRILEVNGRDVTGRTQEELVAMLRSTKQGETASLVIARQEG
# PDZD2_6, O15018 = biological target: T12, PDZD2_6, O15018
Binder,"pKd (MPDZ_11, O75970)","pKd (CARD14, Q9BXL6)","pKd (MAGI1_6, Q96QZ7)","pKd (PDZD7_2, Q9H5P4)","pKd (SHANK2, Q9UPX8)","pKd (GIPC3, Q8TF64)","pKd (SNTB2, Q13425)","pKd (MAST3, O60307)","pKd (GRIP2_2, Q9C0E4)","pKd (PDZD4, Q76G19)","pKd (USH1C_1, Q9Y6N9)","pKd (MAGI3_3, Q5TCQ9)","pKd (SHROOM3, Q8TF72)","pKd (DLG5_2, Q8TDM6)","pKd (MAGI2_1, Q86UL8)","pKd (MAGI1_5, Q96QZ7)","pKd (MAGI3_5, Q5TCQ9)","pKd (SHROOM4, Q9ULL8)","pKd (PARD3B_2, Q8TEW8)","pKd (PDZD2_6, O15018)",also measured
"RHTTSTETAV [HPV30-E6, P36809]",below the threshold,below the threshold,4.73,below the threshold,below the threshold,below the threshold,4.68,below the threshold,below the threshold,below the threshold,below the threshold,below the threshold,below the threshold,below the threshold,below the threshold,5.02,below the threshold,4.73,below the threshold,below the threshold,"pKd (LIMK1, P53667): below the threshold; pKd (GIPC1, O14908): 4.7; pKd (CNKSR1, Q969H4): below the threshold; pKd (LMO7, Q8WWI1): below the threshold"
"RPLPRKVSQL [DOCK4, Q8N1I0]",below the threshold,below the threshold,below the threshold,below the threshold,below the threshold,4.39,below the threshold,below the threshold,4.25,below the threshold,below the threshold,below the threshold,below the threshold,below the threshold,below the threshold,below the threshold,below the threshold,below the threshold,below the threshold,below the threshold,"pKd (GIPC1, O14908): below the threshold; pKd (CNKSR1, Q969H4): below the threshold; pKd (LMO7, Q8WWI1): below the threshold"
"SSLQSLETSV [ATP2B4, P23634]",below the threshold,below the threshold,4.49,below the threshold,below the threshold,below the threshold,4.87,below the threshold,below the threshold,below the threshold,below the threshold,below the threshold,below the threshold,4.34,below the threshold,4.66,below the threshold,4.68,below the threshold,below the threshold,"pKd (LIMK1, P53667): below the threshold; pKd (CNKSR1, Q969H4): below the threshold; pKd (LMO7, Q8WWI1): 4.5"
"SGSRPSATVV [HPV73-E6, Q82005]",below the threshold,4.12,below the threshold,below the threshold,below the threshold,below the threshold,4.13,below the threshold,below the threshold,below the threshold,below the threshold,below the threshold,below the threshold,,below the threshold,4.11,below the threshold,below the threshold,4.24,below the threshold,"pKd (LIMK1, P53667): below the threshold; pKd (GIPC1, O14908): 4.64; pKd (CNKSR1, Q969H4): below the threshold; pKd (LMO7, Q8WWI1): below the threshold"
"QRQARSETLV [HPV59-E6, Q81964]",below the threshold,below the threshold,below the threshold,below the threshold,4.47,below the threshold,below the threshold,below the threshold,below the threshold,below the threshold,below the threshold,below the threshold,below the threshold,below the threshold,below the threshold,5.41,4.62,below the threshold,below the threshold,below the threshold,"pKd (LIMK1, P53667): below the threshold; pKd (GIPC1, O14908): below the threshold; pKd (CNKSR1, Q969H4): below the threshold; pKd (LMO7, Q8WWI1): below the threshold"
"SKPTRRETEV [HPV35-E6, P27228]",below the threshold,,3.66,below the threshold,below the threshold,,,below the threshold,,3.55,below the threshold,,below the threshold,4.72,,4.43,below the threshold,below the threshold,below the threshold,below the threshold,"pKd (GIPC1, O14908): 4.69"
